Laboratory results reported in PMC2952662.

Target: N-terminally His6-tagged Akt1 PH domain S2-S128 construct (human)
Assay: SPR

Substance: Akt inhibitor VI, a 15 residue peptide derived from the oncogene TCL1
- Kd: 1400 nM
- koff: 0.000116 s⁻¹
